Literature values, collected in publication PMC8810291.

Molecular target: FNIP1 (Homo sapiens) (UniProt Q8TF40)
Sequence (Q8TF40 whole entry): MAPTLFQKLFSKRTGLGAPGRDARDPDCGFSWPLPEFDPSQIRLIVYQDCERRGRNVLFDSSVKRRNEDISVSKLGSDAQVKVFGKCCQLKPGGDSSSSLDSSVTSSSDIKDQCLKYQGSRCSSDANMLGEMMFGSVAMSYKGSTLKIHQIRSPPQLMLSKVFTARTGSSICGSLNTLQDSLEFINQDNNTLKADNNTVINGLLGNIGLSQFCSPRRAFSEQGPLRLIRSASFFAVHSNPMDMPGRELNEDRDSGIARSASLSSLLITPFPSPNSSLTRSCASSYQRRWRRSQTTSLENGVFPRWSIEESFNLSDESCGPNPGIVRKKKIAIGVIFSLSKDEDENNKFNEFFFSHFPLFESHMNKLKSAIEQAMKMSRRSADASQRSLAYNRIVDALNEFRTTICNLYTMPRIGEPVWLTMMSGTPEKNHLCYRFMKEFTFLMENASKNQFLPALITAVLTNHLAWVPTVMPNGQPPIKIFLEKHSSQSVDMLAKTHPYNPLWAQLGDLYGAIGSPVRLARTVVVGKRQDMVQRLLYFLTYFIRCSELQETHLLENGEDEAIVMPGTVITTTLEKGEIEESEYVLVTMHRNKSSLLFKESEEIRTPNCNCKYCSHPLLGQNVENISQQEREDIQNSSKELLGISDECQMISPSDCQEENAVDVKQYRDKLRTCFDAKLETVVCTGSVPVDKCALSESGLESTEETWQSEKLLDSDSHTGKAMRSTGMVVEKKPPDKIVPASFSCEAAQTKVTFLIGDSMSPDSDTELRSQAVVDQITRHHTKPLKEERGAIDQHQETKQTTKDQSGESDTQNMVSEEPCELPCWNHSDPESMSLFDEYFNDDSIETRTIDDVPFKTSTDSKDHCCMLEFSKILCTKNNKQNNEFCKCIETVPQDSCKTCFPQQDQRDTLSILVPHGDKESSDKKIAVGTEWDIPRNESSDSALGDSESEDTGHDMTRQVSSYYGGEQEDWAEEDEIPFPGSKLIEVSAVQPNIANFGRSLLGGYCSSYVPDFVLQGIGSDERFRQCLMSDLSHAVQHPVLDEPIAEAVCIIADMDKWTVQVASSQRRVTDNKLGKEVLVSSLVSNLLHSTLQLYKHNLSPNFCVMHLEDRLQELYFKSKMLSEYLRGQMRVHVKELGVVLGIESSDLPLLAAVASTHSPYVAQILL

FEM1B, sequence (Q9UK73 whole entry): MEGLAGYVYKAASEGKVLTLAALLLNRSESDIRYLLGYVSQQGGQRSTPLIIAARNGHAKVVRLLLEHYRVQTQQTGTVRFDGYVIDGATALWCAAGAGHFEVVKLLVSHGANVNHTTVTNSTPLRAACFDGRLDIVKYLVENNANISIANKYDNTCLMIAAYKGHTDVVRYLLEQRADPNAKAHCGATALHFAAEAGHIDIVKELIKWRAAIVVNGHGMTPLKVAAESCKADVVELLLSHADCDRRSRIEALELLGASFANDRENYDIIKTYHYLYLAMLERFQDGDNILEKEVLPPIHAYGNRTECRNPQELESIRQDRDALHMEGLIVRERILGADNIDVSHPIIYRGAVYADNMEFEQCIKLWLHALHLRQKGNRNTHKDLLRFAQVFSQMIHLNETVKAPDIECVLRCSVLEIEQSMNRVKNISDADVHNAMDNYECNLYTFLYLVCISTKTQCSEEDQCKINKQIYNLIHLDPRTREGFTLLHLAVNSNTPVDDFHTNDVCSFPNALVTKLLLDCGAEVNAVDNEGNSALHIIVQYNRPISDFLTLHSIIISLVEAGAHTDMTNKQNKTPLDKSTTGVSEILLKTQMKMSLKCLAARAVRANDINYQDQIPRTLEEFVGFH

Kd: 20 nM
Substance: FEM1B (from UniProt Q9UK73)
